Laboratory results: patent US20240301038A1

B1: AB-009661 (antibody, V domains shown)
VH: QVQLVESGGGVVQPGRSLRLSCAASGFTFSSYGMHWVRQAPGKGLEWVAVISYDGSNKYYADSVKGRFTISRDNSKNTLYLQMNSLRAEDTAVYYCAKDYGDYGGMDVWGQGTTVTVSS
VL: not shown
B2: AB-009358 (antibody, V domains shown)
VH: QVHLVQSGAEVKKPGASVKISCKASGYTFTSYYVHWVRQAPGQGLEWMGIIKPSGAGTIYAQKFQGRVTMTRDTSTSTVYMELSSLISEDTAVYYCARGGGVTDRDYWGQGTLVTVSS
VL: QSALTQEASVSATVGQKVTLSCTGNTNNIGGYAVGWHQQISHGAPKTVMFGNSLPSGIPDRFSGSKSGTTASLIISGLQPEDEADYYCSTWDSSLGAVLFGGGTKLTVL
B3: AB-009614 (antibody, V domains shown)
VH: QVQLVESGGGVVQPGRSLRLSCAASGFTFSSYGMHWVRQAPGKGLEWVAVISYDGSNKYYADSVKGRFTISRDNSKNTLYLQMNSLRAEDTAVYYCAKDQKYYDILTGYYRSTYYYYYYGMDVWGQGTTVTVSS
VL: not shown
B4: AB-009615 (antibody, V domains shown)
VH: QVQLVESGGGVVQPGRSLRLSCAASGFTFSSYGMHWVRQAPGKGLEWVAVIWYDGSNKYYADSVKGRFTISRDNSKNTLYLQMNSLRAEDTAVYYCAKVGSPYCSGGSCYSGYFDYWGQGTLVTVSS
VL: not shown
B5: AB-009281 (antibody, V domains shown)
VH: EVQLVETGGGLIQPGGSLRLSCAASGFTVSSNYMSWVRQAPGKGLEWVSVIYSGGSTYYADSVKGRFTISRDNSKNTLYLQMNSLRAEDTAVYYCARDLYYYGMDVWGQGTTVTVSS
VL: DIQLTQSPSFLSASVGDRVTITCRASQGISSYLAWYQQKPGKAPKLLIYAASTLQSGVPSRFSGSGSGTEFTLTISSLQPEDFATYYCQQLNSYPTFGQGTKVEIK
B6: AB-009769 (antibody, V domains shown)
VH: EVQLVESGGGLVQPGGSLRLSCAASGFTFSSYWMSWVRQAPGKGLEWVANIKQDGSEKYYVDSVKGRFTISRDNAKNSLYLQMNSLRAEDTAVYYCARSPEVLWFGDPVLDNWFDPWGQGTLVTVSS
VL: SYELTQPPSVSVSPGQTARITCSGDALPKQYAYWYQQKPGQAPVLVIYKDSERPSGIPERFSGSSSGTTVTLTISGVQAEDEADYYCQSADSSGTYPVVFGGGTKLTVL
B7: AB-009620 (antibody, V domains shown)
VH: QITLKESGPTLVKPTQTLTLTCTFSGFSLSTSGVGVGWIRQPPGKALEWLALIYWDDDKRYSPSLKSRLTITKDTSKNQVVLTMTNMDPVDTATYYCAHHEVATVFDYWGQGTLVTVSS
VL: QSALTQPASVSGSPGQSITISCTGTSSDVGAYNYVSWYQQHPGKAPKLMIYEVSNRPSGVSNRFSGSKSGNTASLTISGLQAEDEADYYCSSYTSSSTVFGGGTKLTVL
B8: AB-009734 (antibody, V domains shown)
VH: QVHLVQSGAEVKTPGASVRVSCKASGYTFTSHYMHWVRQAPGQGLEWMGLINPSGSGTAYPQHFQGRVTMTRDTSTTTDYMDLSSLRSEDTAMYFCARMERSGAFDLWGQGTMVTVSS
VL: EIVLTQSPGTLSLSPGERATLSCRASQTISSRYLAWYYQKPGQAPRLLIQGSSIRATGIPDRFSGSGSGTDFTLTISRLEPEDFAVYYCQHYGSSPPMYTFGQGTKLEIK
B9: AB-009346 (antibody, V domains shown)
VH: EVQLVESGGGVVRPGGSLRLSCAASGFTFDDYGMSWVRQAPGKGLEWVSGINWNGGSTGYADSVKGRFTISRDNAKNSLYLQMNSLRAEDTALYYCARWPLLGISGYYHYYMDVWGKGTTVTVSS
VL: QSALTQPRSVSGSPGQSVTISCTGTSSDVGGYNYVSWYQQHPGKAPKLMIYDVSKRPSGVPDRFSGSKSGNTASLTISGLQAEDEADYYCCSYAGSYTLLFGGGTKLIVL

What follows are binders tested against SARS-CoV-2 native Spike (S) trimer (Acro Biosystems) (SARS-CoV-2), P0DTC2 (assay: ELISA on spike trimer). Details: remark: other sources report otherwise.

For B1, which OD (450 nm) is on record?
The OD (450 nm) was 2.86 OD (450 nm).

B2 was tested. Which OD (450 nm) did it give?
The OD (450 nm) was 2.76 OD (450 nm).

How did the OD (450 nm) turn out when B3 was run?
Its OD (450 nm) is 0.361 OD (450 nm).

Which OD (450 nm) does the source give for B4 here?
The OD (450 nm) was 2.8 OD (450 nm).

How did the OD (450 nm) turn out when B5 was run?
Its OD (450 nm) is 2.6 OD (450 nm).

How did the OD (450 nm) turn out when B6 was run?
Its OD (450 nm) is 2.87 OD (450 nm).

How did the OD (450 nm) turn out when B7 was run?
Its OD (450 nm) is 2.7 OD (450 nm).

With B8 as the binder, how does the OD (450 nm) read?
Its OD (450 nm) is 3.57 OD (450 nm).

With B9 as the binder, how does the OD (450 nm) read?
The OD (450 nm) was 2.55 OD (450 nm).
